Each sequence was assayed on MS2 coat protein (assay: apparent KD of MS2 coat protein; higher = weaker reporter binding). Conditions: Eterna round: R107; input ligand: theophylline 20 uM.
Outline: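 Apparent KD was obtained for each design as the median of normalised binding-curve fits over its clusters. RNA switches transcribed on-chip from Illumina sequencing clusters were titrated with SNAP-549-labelled MS2 coat protein (twofold steps, 0.7 or 1.5 nM to 3 µM) in 100 mM Tris-HCl pH 7.5, 80 mM KCl, 4 mM MgCl2, without or with constant ligand.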

Compared with “AGCAUGUUAGCAGAUACCAGACGUUUUAUGAUCCAUGUAACAUGAGGAUCACCCAUGUAAGUCCCUUGGCAGCUGAAAUAAUGCA [JR_SSTheophyB_Sub011]”, “UUAAUUAUUGAAUCGUAUUGGUAUUAAGAACGAGGACCGGUACGGCCGCCACUCGUGAUAUACAUGAGGAUCACCCAUGUUAGCA [JR_Nu_SSTryptoA_Sub022]” is 10-fold lower in “apparent KD of MS2 coat protein” value: 187 nM for the first, 18.6 nM for the second.

Compared with “AUACAUGAGGAUCACCCAUGUCAUUCAGAAGGAGCGUCAUUUUAGACAGGUAGGUCGCUGAUAUUAUUCUUAUACUUUAUGUUUA [JR_ExcArginiA_Sub022]”, “UUUAGUAUCUUAGAUACCAGUUUUGGGUGCUGAACGUCUCACAUGAGGAUCACCCAUGUAAACCCUUGGCAGCUACAUACGUAAA [theeternabot_exclusion_MS2_Theo_B_41]” is 2.3-fold higher in “apparent KD of MS2 coat protein” value: 26 nM for the first, 58.9 nM for the second.

Going from “CGCACAUGAGGAUCACCCAUGUGAGGGCGGCGAGGACCGGUACGGCCGCCACUCGCAGGACAUGAGGAUCACCCAUGUGCCGCCG [SSTA DOUBLE!!! :-D]” to “UGAGUUCGCUGAUGGGCUACGUCAGGUGAUACCAGCCACUCCCGCGGCCCUUGGCAGCACAUGAGGAUCACCCAUGUAGAGCUUG [Lazaceonus]”, the “apparent KD of MS2 coat protein” value falls from 397 nM to 20.4 nM (19-fold).

“CGAAUAUAGACGGCCGCCACUCUACAAACAUGAGGAUCACCCAUGUUCACAUAGAGGAAACUCAUGAGGACCGGGUCAUAGGCUU [#20 Same State - Tryptophan B]” and “GCGCGCGCCGAAAGGCGCGCGUGUUGCGAUACCAGCCCGGAAACGGGCCCUUGGCAGCGCACAUGAGGAUCACCCAUGUCAUGUU [Exclusion - Theophylline A Attempt #1 (HarryS)]” are within 1.5-fold of each other in “apparent KD of MS2 coat protein” value: 32.5 nM for the first, 27.1 nM for the second.

Compared with “AAAUGUACGUCGGCCGCCACUGCGCUGAAGACAGUCACAUGAGGAUCACCCAUGUACGACAAGGGUAGGACCGGGAUGUGAGGGU [Rate]”, “GGCCGAUGGUGCGAUACCAGCUUGAGUGUACUGGCCAGGUACAUGAGGAUCACCCAUGUAAGCCCUUGGCAGCGCGUCAGAGGCC [#1 Exclusion - Theophylline B Attempt #21 (HarryS)]” is 8.4-fold lower in “apparent KD of MS2 coat protein” value: 130 nM for the first, 15.5 nM for the second.

Compared with “AUACAUGAGGAUCACCCAUGUAUAGUCGAUACCAGCUCAAGGAAGAGCCCUUGGCAGCGACACUGGUAUCCAUGGGUGAUACCAG [(Ms2)-(Theo)-(T)'-(M)'-(T)''_Design4]”, “AUACAUGAGGAUCACCCAUGUGAUGGCCGGCGAGGACCGGUACGGCCGCCACUCGUGAUCCGUCCUGAGAGCAAAGCUCUCAGCA [Macete]” is 7.1-fold higher in “apparent KD of MS2 coat protein” value: 36.4 nM for the first, 258 nM for the second.

First: CACAUGAGGAUCACCCAUGUCUGAACUGAAGGAGCGCUAAAUAAGGCAGGUAGGUCGCGGAAUUUUGUGUGCAUAUGCACAUGGG [9.P]
Second: GAGCUGAUGUAGAGCUAAUAUAAGAGAGAUACCAGUACAGAAAUGUACCCUUGGCAGCUCAACUUUACAUGAGGAUCACCCAUGU [Ex Theophylline A 21]
The “apparent KD of MS2 coat protein” value of the first is 2.3-fold higher: 30.7 nM for the first, 13.4 nM for the second.

Compared with “GUGUGGAGCUCGGCCGCCACUCAAACAUGAGGAUCACCCAUGUAAAACAUGAGGAUCACCCAUGUGAGGACCGGGAGAAACACGA [Exclusion Tryptophan B GF8]”, “UCGACAGUGAACGAUACCAGCGUCACGUGGCCGGUGGUCACAUGAGGAUCACCCAUGUAACGCCCUUGGCAGCGUGCACGUAUCA [Latedirius]” is 7.1-fold lower in “apparent KD of MS2 coat protein” value: 329 nM for the first, 46.3 nM for the second.

Compared with “ACUAACUAUAGUGAUACCAGACGUACAUGAGGAUCACCCAUGUUACAUUCUUGGUUAAAAGUCCCUUGGCAGCACGAUAAGUUCG [JR_Nu_ExcTheophyB_Sub025]”, “AAUUCCUCACAUGAGGAUCACCCAUGUGAAGGAGCGCCGAAUAAGGCAGGUAGGUCGCACAUGGAAACCUCUACGAAAGUAGUAA [XArg-A 3 NuV1V2]” is 1.9-fold higher in “apparent KD of MS2 coat protein” value: 11.2 nM for the first, 20.8 nM for the second.

With “AAUUAAAACUGAAGGAGCGUCGUGCGUGGGUGCGUCCCACAUGAGGAUCACCCAUGUGGUUGACAGGUAGGUCGCAGAAUAAUUU [Exclusion - Arginine B]” the “apparent KD of MS2 coat protein” value was 95.5 nM.

Same assay, conditions: Eterna round: R107; input ligand: theophylline 2 mM

Compared with “CACAUGAGGAUCACCCAUGUCUGAACUGAAGGAGCGCUAAACAAGGCAGGUAGGUCGCGGAAUUUUGUGUGCAUAUGCACAUGGG [9.O]”, “GGAUAGGACACGGCCGCCACUAUCUAGGAUACUAGCAACAUUUGGGUAUAUGAGGAUCACCCAUAUAGGACCGGGUGUCCUAUCG” is 12-fold higher in “apparent KD of MS2 coat protein” value: 24.6 nM for the first, 303 nM for the second.

First: CCCAGUCAUAGCAAAGCAAAUAUACUCGAAGGAGCGUCAUAGUAGGCAGGUAGGUCGCGAGACAUGAGGAUCACCCAUGUAGAGA [ooomullin]
Second: GGAUAGGACACGGCCGCCACUACCUAGGAUACUAGCAACAUUUGGGUACAAGAGGAUCACCCUUGUAGGACCGGGUGUCCUAUCG
The “apparent KD of MS2 coat protein” value of the first is 2.3-fold higher: 57.8 nM for the first, 25.5 nM for the second.

First: AAUACCGGAUCGGCCGCCACUGGUUGGCCCUGUGUACAUGAGGAUCACCCAUGUCCAUCCCAAGCCAGGACCGGGAUCUUUGUGU [Bedice]
Second: CCGUUUUAUGGCGACAUAGGGCGGACUGAAGGAGCGGUAAAACAGCCAGGUAGGUCGCAGAGAUCCACAUGAGGAUCACCCAUGU [!0.aC]
The “apparent KD of MS2 coat protein” value of the first is 2.8-fold lower: 18.5 nM for the first, 51.2 nM for the second.

Compared with “UGGUGUAGGGUAAAUAGGAUUAGUACAGAAGGAGCGCGAAUAAACGCAGGUAGGUCGCUGGAAUAACAUGAGGAUCACCCAUGUC [Same State Arginine A GF 26]”, “ACAUGAGGAUCACCCAUGUACAUGAGGGAAGGAGCGGUACAUGUGCCAGGUAGGUCGCCCAACAGCAUCAGCCAUGUACAACAGG [zqwmullin]” is 3-fold higher in “apparent KD of MS2 coat protein” value: 26.2 nM for the first, 79.2 nM for the second.

“AAUUAUCACGGAAGGAGCGUCAUGAAAUUGAUACAUGAGGAUCACCCAUGUGAGUGUUAGAGACAGGUAGGUCGCCGAUUAUUGA [JR_AAArginiB_Sub028]” and “AGUAACAUGAGGAUCACCCAUGUAUGAGAAGGAGCGUGUUUUAACACAGGUAGGUCGCUCAAUAUUAAUUUAUUAGAUACAUUUA [JR_SSArginiA_Sub006]” are within 1.5-fold of each other in “apparent KD of MS2 coat protein” value: 49.3 nM for the first, 36.8 nM for the second.

“GGACUAACCAGAAGGAGCGACACGCAGAAACUGCUAAAUCCUCCGCACGAGGAUCACCCGUGUCAGGUAGGUCGCUGGUUAGUCG [ArgBX 28]” and “GUUAUAGACGGAAGGAGCGCGACCACAUGAGGAUCACCCAUGUAUUGUGUUGGUAAUAGGUCGCAGGUAGGUCGCCGGUUAAUGA [#04 Same State - Arginine B]” are within 1.5-fold of each other in “apparent KD of MS2 coat protein” value: 47.5 nM for the first, 38 nM for the second.

First: ACAUGAGGAUCACCCAUGUGUCCUCGAAAACGAGGACCGGUACGGCCGCCACUCGAAAUAAGCUGUUGACGAAAAGUCAGCAGCA [Mat - Exclusion - Trytophan A - D21]
Second: CCUCAAUAGACGGCCGCCACUGAGACAUGAGGAUACAUGAGGAUCACCCAUGUGGGUGUGUCACGCAGGACCGGGUCAAGACCCG [Tryp B SS t2]
The “apparent KD of MS2 coat protein” value of the first is 5.2-fold lower: 152 nM for the first, 794 nM for the second.

“UUAAUUAUUGAAUCGUAUUGGUAUUAAGAACGAGGACCGGUACGGCCGCCACUCGUGAUAUACAUGAGGAUCACCCAUGUUAGCA [JR_Nu_SSTryptoA_Sub022]” and “AUACAUGAGGAUCACCCAUGUCAUUCAGAAGGAGCGUCAUUUUAGACAGGUAGGUCGCUGAUAUUAUUCUUAUACUUUAUGUUUA [JR_ExcArginiA_Sub022]” are within 1.5-fold of each other in “apparent KD of MS2 coat protein” value: 18.1 nM for the first, 19.5 nM for the second.

First: CGCACAUGAGGAUCACCCAUGUGAGGGCGGCGAGGACCGGUACGGCCGCCACUCGCAGGACAUGAGGAUCACCCAUGUGCCGCCG [SSTA DOUBLE!!! :-D]
Second: UGAGUUCGCUGAUGGGCUACGUCAGGUGAUACCAGCCACUCCCGCGGCCCUUGGCAGCACAUGAGGAUCACCCAUGUAGAGCUUG [Lazaceonus]
The “apparent KD of MS2 coat protein” value of the first is 2-fold higher: 501 nM for the first, 254 nM for the second.

“CGAAUAUAGACGGCCGCCACUCUACAAACAUGAGGAUCACCCAUGUUCACAUAGAGGAAACUCAUGAGGACCGGGUCAUAGGCUU [#20 Same State - Tryptophan B]” and “GCGCGCGCCGAAAGGCGCGCGUGUUGCGAUACCAGCCCGGAAACGGGCCCUUGGCAGCGCACAUGAGGAUCACCCAUGUCAUGUU [Exclusion - Theophylline A Attempt #1 (HarryS)]” are within 1.5-fold of each other in “apparent KD of MS2 coat protein” value: 27.4 nM for the first, 24.5 nM for the second.
